{
  "source": "patent US20050287150A1",
  "about": "(UNIVERSITY OF MASSACHUSETTS, published 2005)",
  "key": {"[1]": {"target": "T1, C. difficile toxin A (Clostridium difficile, UniProt P16154 1-2710)", "test": "ELISA, 1 ug/ml Toxin A coat, O.D. 405 nm, four-parameter fit"}, "[2]": {"target": "T1, C. difficile toxin A", "test": "SPR (Biacore), antibody on protein A-coated chip, toxin A flowed over"}, "[3]": {"target": "toxin A subfragment amino acids 660-920 (Clostridium difficile, UniProt P16154 660-920)", "test": "western blot on toxin A subfragments"}, "[4]": {"target": "toxin A subfragment amino acids 660-807 (Clostridium difficile, UniProt P16154 660-807)", "test": "western blot on toxin A subfragments"}, "[5]": {"target": "toxin A subfragment amino acids 1-165 (Clostridium difficile, UniProt P16154 1-165)", "test": "western blot on toxin A subfragments"}, "[6]": {"target": "toxin A subfragment amino acids 1-290 (Clostridium difficile, UniProt P16154 1-290)", "test": "western blot on toxin A subfragments"}, "[7]": {"target": "toxin A subfragment amino acids 1-415 (Clostridium difficile, UniProt P16154 1-415)", "test": "western blot on toxin A subfragments"}, "[8]": {"target": "T1, C. difficile toxin A", "test": "ELISA, 1 ug/ml Toxin A coat, O.D. 405 nm"}},
  "data": [
    {"binder": "human monoclonal antibody produced by hybridoma clone 3D8 (antibody, V domains shown, also called HuMAb 3D8) VH: QVQLVESGGGVVQPGRSLRLSCAASGFSFSNYGMHWVRQAPGKGLEWVALIWYDGSNEDYTDSVKGRFTISRDNSKNTLYLQMNSLRAEDTAVYYCARWGMVRGVIDVFDIWGQGTVVTVSS VL: DIQMTQSPSSVSASVGDRVTITCRASQGISSWLAWYQHKPGKAPKLLIYAASSLQSGVPSRFSGSGSGTDFTLTISSLQPEDFATYYCQQANSFPWTFGQGTKVEIK", "values": [
      {"measurement": "A (lower asymptote of the four-parameter fit)", "setting": "[1]", "value": 0.173, "unit": "O.D. 405 nm"},
      {"measurement": "D (upper asymptote of the four-parameter fit)", "setting": "[1]", "value": 3.66, "unit": "O.D. 405 nm"},
      {"measurement": "EC50", "setting": "[1]", "value": 4, "unit": "ng/mL"},
      {"measurement": "Kd", "setting": "[2]", "value": 1.46, "unit": "nM"}
    ]},
    {"binder": "human monoclonal antibody produced by hybridoma clone 33.3H2 (antibody, V domains shown) VH: QVQLVESGGGVVQPGRSLRLSCAASGFTFNKYGMHWVRQAPGKGLEWVAVIWYDGTNKYYADSMKGRFTISRDNSKNMLYLQMNSLRAEDTAVYYCARDPPTANYWGQGTLVTVSS VL: DIQMTQSPSSLSASVGDRVTITCRASQGISSWLAWYQQKPEKAPKSLIYAASSLQSGVPSRFSGSGSGTDFTLTISSLQPEDFATYYCQQYKSYPVTFGGGTKVEIK", "values": [
      {"measurement": "A (lower asymptote of the four-parameter fit)", "setting": "[1]", "value": 0.172, "unit": "O.D. 405 nm"},
      {"measurement": "D (upper asymptote of the four-parameter fit)", "setting": "[1]", "value": 3.7, "unit": "O.D. 405 nm"},
      {"measurement": "EC50", "setting": "[1]", "value": 5, "unit": "ng/mL"},
      {"measurement": "binding result", "setting": "[3]", "value": "no binding"},
      {"measurement": "binding result", "setting": "[4]", "value": "no binding"}
    ]},
    {"binder": "human monoclonal antibody produced by hybridoma clone 1B11 (antibody, V domains shown, also called HuMAb 1B11) VH: QMQLVESGGGVVQPGRSLRLSCEASGFSFNSYGMHWVRQAPGKGLEWVSVIWASGNKKYYIESVEGRFTISRDNSKNTLYLQMNSLRAEDTAVYYCARANFDYWGQGTLVTVSS VL: EIVLTQSPATLSLSPGERATLSCRASQSVSSYLAWYQQKPGQAPRLLIYDASNRATGIPARFSGSGSGTDFTLTISSLEPEDFAVYYCQQRSNWSQFTFGPGTKVDIK", "values": [
      {"measurement": "A (lower asymptote of the four-parameter fit)", "setting": "[1]", "value": 0.203, "unit": "O.D. 405 nm"},
      {"measurement": "D (upper asymptote of the four-parameter fit)", "setting": "[1]", "value": 3.58, "unit": "O.D. 405 nm"},
      {"measurement": "EC50", "setting": "[1]", "value": 2, "unit": "ng/mL"},
      {"measurement": "binding result", "setting": "[5]", "value": "no binding"},
      {"measurement": "binding result", "setting": "[6]", "value": "no binding"},
      {"measurement": "binding result", "setting": "[7]", "value": "no binding"},
      {"measurement": "Kd", "setting": "[2]", "value": 0.738, "unit": "nM"},
      {"measurement": "EC50 (read off the curve)", "setting": "[8]", "value": "~2", "unit": "ng/mL"}
    ]}
  ]
}
